The data set concerns the molecule itself. In words: SEC. On the technique in general: Size exclusion chromatography separates by hydrodynamic size, large species first.

B1: M tuberculosis MscL ion channel, wild type (natural protein)
chain: MLKGFKEFLARGNIVDLAVAVVIGTAFTALVTKFTDSIITPLINRIGVNAQSDVGILRIGIGGGQTIDLNVLLSAAINFFLIAFAVYFLVVLPYNTLRKKGEVEQPGDTQVVLLTEIRDLLAQTNGDSPGRHGGRGTPSPTDGPRASTESQ
notes: also called TbMscL; WT TbMscL
With B1, the stoichiometry N (in general, a count of units in the complex or per binding partner) amounted to 5.

(Values after PMC9304679, “HDX-guided EPR spectroscopy to interrogate membrane protein dynamics” (STAR Protocols, 2022).)
